Data as given in paper PMC4624055 (The Journal of allergy and clinical immunology, 2015).

B1: Asc s 13 (enzyme, Ascaris suum, UniProt P46436 1-206, looked up)
chain: MPQYKLTYFDIRGLGEGARLIFHQAGVKFEDNRLKREDWPALKPKTPFGQLPLLEVDGEVLAQSAAIYRYLGRQFGLAGKTPMEEAQVDSIFDQFKDFMAELRPCFRVLAGFEEGDKEKVLKEVAVPARDKHLPLLEKFLAKSGSEYMVGKSVTWADLVITDSLASWESLIPDFLSGHLQLKKYIEHVRELPNIKKWIAERPKTPY
B2: Bla g 5 (enzyme, Blattella germanica, UniProt O18598 1-204, looked up)
chain: MAPSYKLTYCPVKALGEPIRFLLSYGEKDFEDYRFQEGDWPNLKPSMPFGKTPVLEIDGKQTHQSVAISRYLGKQFGLSGKDDWENLEIDMIVDTISDFRAAIANYHYDADENSKQKKWDPLKKETIPYYTKKFDEVVKANGGYLAAGKLTWADFYFVAILDYLNHMAKEDLVANQPNLKALREKVLGLPAIKAWVAKRPPTDL

Molecular target: the molecule itself
Assay: crystal structure

Protein	stoichiometry N
B1	2
B2	2
